B1: Compound A6 (peptide)
peptide: WSQGTFTSDYSKYLD[Aib]KRAQEFV[Aib]WLEDEPSSGAPPPS-OH
modifications: N-terminus assumed
SMILES: CC(C)C[C@H](NC(=O)[C@H](Cc1ccc(O)cc1)NC(=O)[C@H](CCCCN)NC(=O)[C@H](CO)NC(=O)[C@H](Cc1ccc(O)cc1)NC(=O)[C@H](CC(=O)O)NC(=O)[C@H](CO)NC(=O)[C@@H](NC(=O)[C@H](Cc1ccccc1)NC(=O)[C@@H](NC(=O)CNC(=O)[C@H](CCC(N)=O)NC(=O)[C@H](CO)NC(=O)[C@@H](N)Cc1c[nH]c2ccccc12)[C@@H](C)O)[C@@H](C)O)C(=O)N[C@@H](CC(=O)O)C(=O)NC(C)(C)C(=O)N[C@@H](CCCCN)C(=O)N[C@@H](CCCNC(=N)N)C(=O)N[C@@H](C)C(=O)N[C@@H](CCC(N)=O)C(=O)N[C@@H](CCC(=O)O)C(=O)N[C@@H](Cc1ccccc1)C(=O)N[C@H](C(=O)NC(C)(C)C(=O)N[C@@H](Cc1c[nH]c2ccccc12)C(=O)N[C@@H](CC(C)C)C(=O)N[C@@H](CCC(=O)O)C(=O)N[C@@H](CC(=O)O)C(=O)N[C@@H](CCC(=O)O)C(=O)N1CCC[C@H]1C(=O)N[C@@H](CO)C(=O)N[C@@H](CO)C(=O)NCC(=O)N[C@@H](C)C(=O)N1CCC[C@H]1C(=O)N1CCC[C@H]1C(=O)N1CCC[C@H]1C(=O)N[C@@H](CO)C(=O)O)C(C)C
B2: Compound A2 (peptide)
peptide: YSHGTFTSDYSKYLD[Aib]KSAQEFV[Aib]WLEDEPSSGAPPPS-OH
modifications: N-terminus assumed
SMILES: CC(C)C[C@H](NC(=O)[C@H](Cc1ccc(O)cc1)NC(=O)[C@H](CCCCN)NC(=O)[C@H](CO)NC(=O)[C@H](Cc1ccc(O)cc1)NC(=O)[C@H](CC(=O)O)NC(=O)[C@H](CO)NC(=O)[C@@H](NC(=O)[C@H](Cc1ccccc1)NC(=O)[C@@H](NC(=O)CNC(=O)[C@H](Cc1c[nH]cn1)NC(=O)[C@H](CO)NC(=O)[C@@H](N)Cc1ccc(O)cc1)[C@@H](C)O)[C@@H](C)O)C(=O)N[C@@H](CC(=O)O)C(=O)NC(C)(C)C(=O)N[C@@H](CCCCN)C(=O)N[C@@H](CO)C(=O)N[C@@H](C)C(=O)N[C@@H](CCC(N)=O)C(=O)N[C@@H](CCC(=O)O)C(=O)N[C@@H](Cc1ccccc1)C(=O)N[C@H](C(=O)NC(C)(C)C(=O)N[C@@H](Cc1c[nH]c2ccccc12)C(=O)N[C@@H](CC(C)C)C(=O)N[C@@H](CCC(=O)O)C(=O)N[C@@H](CC(=O)O)C(=O)N[C@@H](CCC(=O)O)C(=O)N1CCC[C@H]1C(=O)N[C@@H](CO)C(=O)N[C@@H](CO)C(=O)NCC(=O)N[C@@H](C)C(=O)N1CCC[C@H]1C(=O)N1CCC[C@H]1C(=O)N1CCC[C@H]1C(=O)N[C@@H](CO)C(=O)O)C(C)C
B3: Compound A7 (peptide)
peptide: YSHGTFTSDYSKYLD[Aib]ARAQEFV[Aib]WLEDEPSSGAPPPS-OH
modifications: N-terminus assumed
SMILES: CC(C)C[C@H](NC(=O)[C@H](Cc1ccc(O)cc1)NC(=O)[C@H](CCCCN)NC(=O)[C@H](CO)NC(=O)[C@H](Cc1ccc(O)cc1)NC(=O)[C@H](CC(=O)O)NC(=O)[C@H](CO)NC(=O)[C@@H](NC(=O)[C@H](Cc1ccccc1)NC(=O)[C@@H](NC(=O)CNC(=O)[C@H](Cc1c[nH]cn1)NC(=O)[C@H](CO)NC(=O)[C@@H](N)Cc1ccc(O)cc1)[C@@H](C)O)[C@@H](C)O)C(=O)N[C@@H](CC(=O)O)C(=O)NC(C)(C)C(=O)N[C@@H](C)C(=O)N[C@@H](CCCNC(=N)N)C(=O)N[C@@H](C)C(=O)N[C@@H](CCC(N)=O)C(=O)N[C@@H](CCC(=O)O)C(=O)N[C@@H](Cc1ccccc1)C(=O)N[C@H](C(=O)NC(C)(C)C(=O)N[C@@H](Cc1c[nH]c2ccccc12)C(=O)N[C@@H](CC(C)C)C(=O)N[C@@H](CCC(=O)O)C(=O)N[C@@H](CC(=O)O)C(=O)N[C@@H](CCC(=O)O)C(=O)N1CCC[C@H]1C(=O)N[C@@H](CO)C(=O)N[C@@H](CO)C(=O)NCC(=O)N[C@@H](C)C(=O)N1CCC[C@H]1C(=O)N1CCC[C@H]1C(=O)N1CCC[C@H]1C(=O)N[C@@H](CO)C(=O)O)C(C)C
B4: Compound A5 (peptide)
peptide: YSHGTFTSDYSKYLDSARAQEFVKWLEDEPSSGAPPPS-NH2
B5: Compound A78 (peptide)
peptide: YSHGTFTSDYSKYLD[Aib]KLAQEFV[Aib]WLEDEPSSGAPPPS-OH
modifications: N-terminus assumed
SMILES: CC(C)C[C@H](NC(=O)[C@H](CCCCN)NC(=O)C(C)(C)NC(=O)[C@H](CC(=O)O)NC(=O)[C@H](CC(C)C)NC(=O)[C@H](Cc1ccc(O)cc1)NC(=O)[C@H](CCCCN)NC(=O)[C@H](CO)NC(=O)[C@H](Cc1ccc(O)cc1)NC(=O)[C@H](CC(=O)O)NC(=O)[C@H](CO)NC(=O)[C@@H](NC(=O)[C@H](Cc1ccccc1)NC(=O)[C@@H](NC(=O)CNC(=O)[C@H](Cc1c[nH]cn1)NC(=O)[C@H](CO)NC(=O)[C@@H](N)Cc1ccc(O)cc1)[C@@H](C)O)[C@@H](C)O)C(=O)N[C@@H](C)C(=O)N[C@@H](CCC(N)=O)C(=O)N[C@@H](CCC(=O)O)C(=O)N[C@@H](Cc1ccccc1)C(=O)N[C@H](C(=O)NC(C)(C)C(=O)N[C@@H](Cc1c[nH]c2ccccc12)C(=O)N[C@@H](CC(C)C)C(=O)N[C@@H](CCC(=O)O)C(=O)N[C@@H](CC(=O)O)C(=O)N[C@@H](CCC(=O)O)C(=O)N1CCC[C@H]1C(=O)N[C@@H](CO)C(=O)N[C@@H](CO)C(=O)NCC(=O)N[C@@H](C)C(=O)N1CCC[C@H]1C(=O)N1CCC[C@H]1C(=O)N1CCC[C@H]1C(=O)N[C@@H](CO)C(=O)O)C(C)C
B6: Compound A79 (peptide)
peptide: YSHGTFTSDYSKYLD[Aib]KEAQEFV[Aib]WLEDEPSSGAPPPS-OH
modifications: N-terminus assumed
SMILES: CC(C)C[C@H](NC(=O)[C@H](Cc1ccc(O)cc1)NC(=O)[C@H](CCCCN)NC(=O)[C@H](CO)NC(=O)[C@H](Cc1ccc(O)cc1)NC(=O)[C@H](CC(=O)O)NC(=O)[C@H](CO)NC(=O)[C@@H](NC(=O)[C@H](Cc1ccccc1)NC(=O)[C@@H](NC(=O)CNC(=O)[C@H](Cc1c[nH]cn1)NC(=O)[C@H](CO)NC(=O)[C@@H](N)Cc1ccc(O)cc1)[C@@H](C)O)[C@@H](C)O)C(=O)N[C@@H](CC(=O)O)C(=O)NC(C)(C)C(=O)N[C@@H](CCCCN)C(=O)N[C@@H](CCC(=O)O)C(=O)N[C@@H](C)C(=O)N[C@@H](CCC(N)=O)C(=O)N[C@@H](CCC(=O)O)C(=O)N[C@@H](Cc1ccccc1)C(=O)N[C@H](C(=O)NC(C)(C)C(=O)N[C@@H](Cc1c[nH]c2ccccc12)C(=O)N[C@@H](CC(C)C)C(=O)N[C@@H](CCC(=O)O)C(=O)N[C@@H](CC(=O)O)C(=O)N[C@@H](CCC(=O)O)C(=O)N1CCC[C@H]1C(=O)N[C@@H](CO)C(=O)N[C@@H](CO)C(=O)NCC(=O)N[C@@H](C)C(=O)N1CCC[C@H]1C(=O)N1CCC[C@H]1C(=O)N1CCC[C@H]1C(=O)N[C@@H](CO)C(=O)O)C(C)C
B7: Compound A1 (peptide)
peptide: YSHGTFTSDYSKYLD[Aib]KYAQEFV[Aib]WLEDEPSSGAPPPS-OH
modifications: N-terminus assumed
SMILES: CC(C)C[C@H](NC(=O)[C@H](Cc1ccc(O)cc1)NC(=O)[C@H](CCCCN)NC(=O)[C@H](CO)NC(=O)[C@H](Cc1ccc(O)cc1)NC(=O)[C@H](CC(=O)O)NC(=O)[C@H](CO)NC(=O)[C@@H](NC(=O)[C@H](Cc1ccccc1)NC(=O)[C@@H](NC(=O)CNC(=O)[C@H](Cc1c[nH]cn1)NC(=O)[C@H](CO)NC(=O)[C@@H](N)Cc1ccc(O)cc1)[C@@H](C)O)[C@@H](C)O)C(=O)N[C@@H](CC(=O)O)C(=O)NC(C)(C)C(=O)N[C@@H](CCCCN)C(=O)N[C@@H](Cc1ccc(O)cc1)C(=O)N[C@@H](C)C(=O)N[C@@H](CCC(N)=O)C(=O)N[C@@H](CCC(=O)O)C(=O)N[C@@H](Cc1ccccc1)C(=O)N[C@H](C(=O)NC(C)(C)C(=O)N[C@@H](Cc1c[nH]c2ccccc12)C(=O)N[C@@H](CC(C)C)C(=O)N[C@@H](CCC(=O)O)C(=O)N[C@@H](CC(=O)O)C(=O)N[C@@H](CCC(=O)O)C(=O)N1CCC[C@H]1C(=O)N[C@@H](CO)C(=O)N[C@@H](CO)C(=O)NCC(=O)N[C@@H](C)C(=O)N1CCC[C@H]1C(=O)N1CCC[C@H]1C(=O)N1CCC[C@H]1C(=O)N[C@@H](CO)C(=O)O)C(C)C
B8: Compound A3 (peptide)
peptide: YSQGTFTSDYSKYLDAARAQEFVKWLEDEPKSKSPPPS-NH2
B9: Compound A4 (peptide)
peptide: YSHGTFTSDYSKYLD[Aib]KRAQEFVIWLEDEPSSGAPPPS-OH
modifications: N-terminus assumed
SMILES: CC[C@H](C)[C@H](NC(=O)[C@@H](NC(=O)[C@H](Cc1ccccc1)NC(=O)[C@H](CCC(=O)O)NC(=O)[C@H](CCC(N)=O)NC(=O)[C@H](C)NC(=O)[C@H](CCCNC(=N)N)NC(=O)[C@H](CCCCN)NC(=O)C(C)(C)NC(=O)[C@H](CC(=O)O)NC(=O)[C@H](CC(C)C)NC(=O)[C@H](Cc1ccc(O)cc1)NC(=O)[C@H](CCCCN)NC(=O)[C@H](CO)NC(=O)[C@H](Cc1ccc(O)cc1)NC(=O)[C@H](CC(=O)O)NC(=O)[C@H](CO)NC(=O)[C@@H](NC(=O)[C@H](Cc1ccccc1)NC(=O)[C@@H](NC(=O)CNC(=O)[C@H](Cc1c[nH]cn1)NC(=O)[C@H](CO)NC(=O)[C@@H](N)Cc1ccc(O)cc1)[C@@H](C)O)[C@@H](C)O)C(C)C)C(=O)N[C@@H](Cc1c[nH]c2ccccc12)C(=O)N[C@@H](CC(C)C)C(=O)N[C@@H](CCC(=O)O)C(=O)N[C@@H](CC(=O)O)C(=O)N[C@@H](CCC(=O)O)C(=O)N1CCC[C@H]1C(=O)N[C@@H](CO)C(=O)N[C@@H](CO)C(=O)NCC(=O)N[C@@H](C)C(=O)N1CCC[C@H]1C(=O)N1CCC[C@H]1C(=O)N1CCC[C@H]1C(=O)N[C@@H](CO)C(=O)O

Where no end group is shown, it is not given here. [ ]: non-standard residue; d: D form. Aib = CC(C)(N)C(=O)O Where only a bound is given, the exact number is not on record here.

Sequence of human GLP-1 receptor (GLP-1R) (P43220 24-463): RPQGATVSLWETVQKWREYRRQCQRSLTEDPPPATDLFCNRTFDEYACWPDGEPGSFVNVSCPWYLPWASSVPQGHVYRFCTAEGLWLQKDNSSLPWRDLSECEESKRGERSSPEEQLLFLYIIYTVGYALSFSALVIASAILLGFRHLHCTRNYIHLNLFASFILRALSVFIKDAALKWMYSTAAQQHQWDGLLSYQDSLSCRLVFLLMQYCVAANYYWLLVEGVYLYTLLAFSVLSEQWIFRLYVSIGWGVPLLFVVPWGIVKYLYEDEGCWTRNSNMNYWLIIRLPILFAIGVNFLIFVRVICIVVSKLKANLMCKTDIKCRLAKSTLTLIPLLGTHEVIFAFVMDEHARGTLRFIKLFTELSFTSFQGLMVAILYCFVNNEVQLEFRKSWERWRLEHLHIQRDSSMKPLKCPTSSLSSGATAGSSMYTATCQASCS

In the first test the target is human glucagon receptor (GCGR) (human, UniProt P47871 26-477). Briefly: cell-based or functional assay.
Consider B1, for which the “hGCGR pEC50 (cAMP)” value is 11.7 pEC50.
Same read-out and setting: the figure for B2 is 11.7 pEC50; for B3 it is 11.9 pEC50; for B4 it is 11.8 pEC50.
Consider B5, for which the “hGCGR pEC50 (cAMP)” value amounted to 10.8 pEC50.
B6: the “hGCGR pEC50 (cAMP)” value was 10.2 pEC50.
Same read-out and setting: the figure for B7 is 12.3 pEC50; for B8 it is 12.1 pEC50.
With B9, the “hGCGR pEC50 (cAMP)” value is 11.8 pEC50.

A further test has as its target human GLP-1 receptor (GLP-1R) (human, UniProt P43220 24-463). Nature of the test: cell-based or functional assay.
In the case of B1, the “hGLP1 pEC50 (cAMP)” value is 5.3 pEC50.
Same read-out and setting: the figure for B2 is 5.4 pEC50; for B3 it is less than 9 pEC50; for B4 it is 5.8 pEC50.
In the case of B5, the “hGLP1 pEC50 (cAMP)” value was less than 9 pEC50.
As to B6, the “hGLP1 pEC50 (cAMP)” value is less than 9 pEC50.
Consider B7, for which the “hGLP1 pEC50 (cAMP)” value was found to be 5.2 pEC50.
For the molecule B8, the “hGLP1 pEC50 (cAMP)” value amounted to 6.7 pEC50.
Consider B9, for which the “hGLP1 pEC50 (cAMP)” value was less than 5 pEC50.

The values are drawn from patent US20180009871A1 (INTARCIA THERAPEUTICS, published 2018).
